Test: yeast display, Sf9 membrane polyspecificity reagent, FACS + sequencing; frameworks hold sequencing errors
How it was run: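 After 36–48 hours of galactose induction, yeast (Saccharomyces cerevisiae BJ5465) displaying a synthetic nanobody library were stained at 4 °C for 1 hour with 10% biotinylated, detergent-solubilized Sf9 membrane reagent. Streptavidin microbeads enriched the stained cells before FACS sorting into low and high (top ~1%) gates on anti-HA and streptavidin fluorescence. Each clone's polyreactivity label reflects its gate of origin.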

Row | Sequence | polyreactivity (PSR sort gate)
1 | QFQLVESGGGLVQAGGSLRLSCAASGRIFDLNAMGWYRQAPGKERELVAAITWSGDSTYYADSVKGRITISRDNAKNTVYLQLNSLKPEDTAVYYCAAASRTSYSWVDYEFDYWGQGTQVTVSS | low polyreactivity
2 | QVQLVESGGGLVQAGGSLRLSCAASGFTLYRNAMGWYRQAPGKERELVAAITSSGGRTYYADSVKGRFTISRDNAKYTVYLQMNSLKPEVTAVYSCAADFGLGYYYWGQGTQVTVSS | high polyreactivity
3 | QVQLVESGGGVVHAGGSLLLSCAASGRTFFRYVKGWYRQEPGKERELVAAISTRGGSTYYADSVKGRFTISRDNAKNTVYLQMNSLKPEDSAVYYCAADVPTGYDYWGQGTQVTVSS | high polyreactivity
4 | QVQLVESGGGLVQAGGSLRLSCAASGSIFSINTMGWYRQAPRTERELVATITWSVGSTNYADSVKGRFTISRDNAKNSVYLQMNSLKPVDTAVYYCNAESFYDYNYWGEGTQVTVSS | low polyreactivity
5 | QVQLVESGGGLVQAGGSLRLSCAASGSIFDPNAMGWYRQAPGKERELVAAITSGGGSTYYADSVKGRFTISRDNAKNTVYLEMNSLKPEDTAVYYCNKVFVLPYKFVAWFDYWGQGTQVTVSS | low polyreactivity
6 | QVQLVESGGGLVQAGGSLRLSCAASGFTFTDYAMGWYRQAPGKERELVAAITKGGGRTYYADSVKGRFTISRDNAKNTVYLQMNSLKPEDTAVYYCNARYQVPYGYWGQGTQVTVSS | low polyreactivity
7 | QVQLVESGGGLVQAGGSLRLSCAASGLIFRANSMGWYRQPPGKVRELVAAISSGGSTYYADSVKGRFTISRDNAKNTVYLQMNSLIPEDTAFYYCAALGQSPSRFGYWGQGTQVTVSS | low polyreactivity
8 | QVQLVESGGGLFQAGGSLRLSCAASGSIFWPNTMGWYRQAPGKERELVATISSGGDTSYADSVKGRFTISRDNEKNTVYLQMNSLKPEDTAVYYLAKSITVDDVHPRALTYNYWGQGTQVTVSS | low polyreactivity
9 | QVQLVESGGGLVQAGGSLRFSCAASGRTFYRYAMGWYRQAPGKERVLVAAISGSGGSTYYADSVKGRFTISRDNAKNTVYLQMNSLKPEDTAVYYCAADGPSHHGDDDYWGQGTQVTVSS | low polyreactivity
10 | QVQLVESGGGLVQAGGSLRLSCAASGRIFRYNAMGWYRQAPGKERELVAAISSVGSTNYADSVKGRFTISRDNAKNTVYLQMNSLKPEDTAVYYCNAVVRSYVKTYRYYKVDYWGQGTQVTVSS | high polyreactivity
11 | QVQLVESGGGLVQAGGSLRLSCAASGRISTYTMGWYRQAPGKERELVATISTDASTNYADSVKGRFTISRDNAKNTVYLQINSLKPEDTAVYYCAAVIVNQYYDYWGQGTQVTVSS | low polyreactivity
12 | QVQLVESGGGLVQAGGSLRLSCAASGSTFYGYAMGWYRQAPGKERELVAAITSTVITDYADSVKGRFTISRDNAKNTVYLQMNSLKPEDTAVYYCNKDRATRVTAEFRGDDDYWGQGTQVTVSS | low polyreactivity
13 | QVQLVESGGGLVQAGGSLRLSCAASGSTFAGYTMGWYRQAPGKERELVAAITGGGSTYYADSVKGRFTISRDNAKNTVYLQMNSLKPEDTAVYYCAARWWTYGIGYGYWGQGTQVTVSS | high polyreactivity
14 | QVQLEESGGGLVQAGGSLRLSCAASGSTFIVNAMGWYRQAPGKERELVATISGGDSTDYADSVKGRFTISRDNAKNTVYLQMKSLKPEDTAVYYCNAEVHQYYFTPYDYWGQGTQVTFSS | low polyreactivity
15 | QVQLVESGGRLVQAGGSLRLSCAASGLIIDVNTMGWYRQAPGKDRELVAAITGSGGRTYYADSVKGRFTISRDNAKNTVYLQMNSLKPEDSAVYYCNADTSYVGFDFWGQGTQVTVSS | low polyreactivity
16 | QVQLVESGGGLVQAGRSLRLSCAASGRIFRYNTMGWYRQAPGKERELVARINRGGSTNYADSVKGRFTISRDNAKNTVYLQMNSLKAEDTAVYYCNARYTARHYPFSNFDYWGQGTQVTVSS | high polyreactivity
17 | QVQLVESGGGLVQAGGSLRLSCAASGRTFYYNAMGWYRQAPGKERELVAAISWSGGRTYYADSVKGRFTISRDNAKNTVYLQMNSLKPEDTAVYYCAATGFYSSHYHLDYWGQGTQVTVSS | high polyreactivity
18 | QVQLVESGGGLVQAGGSLRLSCAASGFTFYYNAMGWYRQAPGKERELVAAISSNGGSTYYADSVKGRFTISRDNAKNTVYLQMNSLKPEDTAVYYCAAYPKSSRWDFESWGQGTQVTVSS | low polyreactivity
19 | QVQLVESGGGLVQAGGSLRLSCDASGLTFRLYTMGWYRQAPGKETELGAAITYSGDSTYYADSVKGRFTISRDNAKNTDYLQMNSLKPEDTAVYYCAARKYYARYYWGQGTQVTVSW | high polyreactivity
20 | QVQLVESGGALVQAGGSLRLSCAASGSIFGFYMGWYRQAPGKERELVAAISGSGGNTYYADSVKGRFTISRDNAKNTVYLQMNSLKPEDTSVYYCAAERWDLWLLYDYWGQGTQVTVSS | high polyreactivity
21 | QVQLVESGGGLVQAGGSLRLSCAASGITFGSYAMGWYRQAPGKEREFVAAISLSGGNTYYADSVKGRFTISRDNAKNTVYLQMNSRKPEDTAVYYCAADYDYSGYGYWGQGTQVTVSS | high polyreactivity
22 | QVQLVESGGGLVQAGGSLRLSCAASGFTFGDNAMGWYRQAPWKERELVADIDSDGSTYYADSVKGRFTISRDNAKNTFYLEMNSLKPEDNAVYYCAKDQYYSLGPYSFGFDYWGQGTQVNVSS | low polyreactivity

Row | Sequence | polyreactivity (PSR sort gate)
23 | QVQLVESGGGLVQAGCSLRLSCAASGFIFDDYDMGWYRQAPGKERELVAAISWSGGSTYYADSVKGRFTISRDNAKNTVYLQMNSLKPEDTAVFYCNADYYRSRYDYWGQGTQVTVSS | high polyreactivity
24 | QVQLVESGGGLVQAGGSLRLSCAASGFTFGGYAMGWYRQAPGKERELVAAISRSGGSTYYADSVKGRFIISRDNAKNTVYLQMNSLKPEDTAVYYCAAKTVSRARLYDYWGQGTQVTVSS | high polyreactivity
25 | QVQLVETGGGLVQAGGSLSLSCAGSVSTFWFYPMGCYRQATGKEREFVATISRSGGSTHNADSVKGRFTISSDNAKNTVYLQMNSLKPEDTAVYYCAKYQRYYSNDYNYWGQGTQVTVSS | high polyreactivity
26 | QVQLVESGGGLVQAGGSLRLSCAASGYNFARYAMGWDRQAPGKEREFVAAITWSGGTTYYADSVKGRFTISRDNAKNTVYLQMNRLKPEDTAVYYCAARGYYTEAASSKRGNYWGQGTQVTVSS | high polyreactivity
27 | QVQLVESGGGLVQEGGSLRLSCAASGRTFAYNVKGRYRQAPGKVRELVAGISFGAGSTYYADSVKGRFTISRDNAKNTVYLHMNSLKPEDTAVYYCATRRRGTRYPRGYDYWGQGTQVTVSS | high polyreactivity
28 | QVQLVESGGGLVQAGGSLRLSCAASGRTFVYNAMGWYRQAPGKERELVAAINWRGGSTYYADSVKGRFTISRDNAKNTVSLQMNSLKPEDTAVYYCAPRNVYVWYDYWGQGTQVTVSS | low polyreactivity
29 | QVQLVESGGGLVQAGGSLRLSCAASGRTLIAYAMGWYRQAPGKEREFVAAIRADDGRTYYADSVKGRFTISRDNAKNTVYLQMNSLKPEDTAVYYCATKADKRYGFGYWGQGTQVTVSS | high polyreactivity
30 | QVQLVESGGGLVQAGGSLRLSCAASGSIFSFNAMGWYRQAPGKERELVAVITRNGGSTYYADSVKGRFTISRDNAKNTVYLQKNSLKPEDTAVYYCAKRLYRHIMGYWGQGTQVTVSS | high polyreactivity
31 | QVQLVESGGGLVQAGGSLRLSWAASGRIIYGYAMGWYRQAPGKERELVAAITATYYADSVKGRFTISRDNAKNTVYLQMNSLKPEDTAVYYCNAYLYPKQPLSPPDPTFEGGYWGQGTQVTVSS | low polyreactivity
32 | QVQLVESGRGLVQAGGSLRLSCAASGVTFNVYAMGWYREAPGKVRELVAAISYNGGRTYYADSVKGRFTISRDNAKNTVYLQINSLKPEDTAVFYCAALYYFTPSDGRRYDYWGQCTQVTVSS | high polyreactivity
33 | QVQHVESGGGLVQAGGSLRLSSAASGRIFSWNAMVWYRQAPGKERELVAAITNGGGTYYADSVKGRFTISRDNAKNTVYLQMNSLKPEDTAVYYCNAYRRKLWYPTGMYWGQGTQVTVSS | high polyreactivity
34 | QVQLVESGGGLVQAGGSLRLSCAASGSTFGHNAMGWYRQAPGKERELVAAIDSGDGTTYADSVKGRFTISRDNAKNTVYFQMNSLKPEDTAVYYCAATTDRAEDDDNIGGYWGQGTQVTVSS | low polyreactivity
35 | QVQLVETGRGLVQAGGSLRLSCAASGLTFKFNAMGWYRQAPGKEREFVAAISRSGGRTYYAESVKGRFTISRDNAKNTVYFQMNSLKPEDTAVYFCADEEIVYYPVLFEYDYWGQGTQVTASS | high polyreactivity
36 | QVQLVESGGGLVQGGGSLSLSCAASGSNFWRYAMGWYRQAPGKEMELVAVISDRGCITYYADSVKGRFTISRDNAKNTVYLQMNSLKPEDTAVYYCNAVDSDRSDPSEYDYWGQGTQVTLSS | low polyreactivity
37 | QVQLVESGGGLVQAGGSLRLSCAASGRIFHGYAMGWYRQAPGKDRELVAVIRSGVNTNYADSVKGRFTISRDNAKNTVYLQMNSLKPADTAVYYCAVDYTPEDWGDDYWGQGTHVTVSS | low polyreactivity
38 | QVQLVDSGGGLVQAGGSLRLSCPASGIIIARNTMGWYRQAPGKERELVAAISTRGTTTYYADSVKGRFTISRDNAKNTVYLQMNSLKPEDTAVYSCAAFRVHTDRYNYWGQGTQVTVSS | high polyreactivity
39 | QVQLVESGGGLFQAGGSLRLSCAASGLTFYVYAMGWYRQAPGKERELVAAITQNGGTTYYADSVKGRFTISRDNAKNTVYLQMNSLKPEDTAVYYCAAGNRSLGGRLYRYYYWGQGTLVTVSS | high polyreactivity
40 | QVQLVESGGGLVKAGGSLRLSCAASGRTFRYYDMGWYRQAPGKESELVAAIRTRGASTYYADSVKGRFTISRDNAKNTVYLQMNSLNPEDTAVYYCAKRAHFSSARHVYYIYDYWGQGTQVTVSS | low polyreactivity
41 | QVLLQESGGGLVQAGGSLRLCCAASGYISGDQFMGWYRQAPGKEREFVAGIGNGTNTNYADSVKGRFTTSRDNAKNTVYLQMNSLKPEDTAVYYCAADPSDGSTLAYWGQGTQVTVSS | high polyreactivity
42 | QVQLVESGGGLVQAGGSLRLSCAASGSIFFSYVMGWYRQAPGKERELVADITYSGGSTFYADSVKGRFTISRDNAKNTVYLQMNSLKPEDTAVYYCAATWYSWGSEFDYWGQGTQVTVSS | high polyreactivity
43 | QVQLVESGGGLVQAGGSLRLSCAASGRIFAVYAMGWYRQAAGKERELVAAITSTGSTNYADSVKGRFTISRDNAKNTVYLQMNSLKPEDTAVYYCAKRRHSSWLRYNYWGQGTQVTVSS | low polyreactivity
